What was measured:
[1] = Luminescence activity of ZZ-fused KAZ mutants in crude enzyme solutions; type: biochemical; settings: for Relative Luminescence Activity (Imax): ZZ-fused (pCold-ZZ-P-), 1 mM DTT; for Luminescence activity, fold higher than dnKAZ / Luminescence activity, fold higher than wild KAZ: ZZ-fused, coelenterazine (Table 9)
Outline: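 E. coli BL21 crude extracts held with 1 mM DTT (final) on ice over 5 hours. Reaction started with 1 μL extract in 100 μL TE containing 1 μg coelenterazine; luminescence read for 60 seconds, maximum intensity (Imax) reported as relative activity.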

[2] = Substrate specificities of KAZ mutants (ZZ-fused, crude enzyme), bis-CTZ; type: biochemical; settings: 1 μg substrate; for Relative Luminescence Activity bis-CTZ Int.: integrated for 60 seconds; for Relative Luminescence Activity bis-CTZ Imax: maximum intensity of luminescence
Method: (§1) The coelenterazine analogues used for substrate specificity studies were synthesized by the methods described in publications. Specifically, bis-coelenterazine was synthesized by the method described in Nakamura et al. (1997) Tetrahedron Lett. 38: 6405-6406; furimazine by the method described in Hall et al. (2012) ACS Chem. Biol. […]; and, 6h-coelenterazine, f-coelenterazine and 6h-f-coelenterazine by the methods described in Inouye et al (2013) Biochem. Biophys. Res. Commun. 437: 23-28.
(§2) DTT was added to the crude enzyme solutions obtained in EXAMPLE 17 at a final concentration of 1 mM and the mixtures were allowed to stand in an ice water for more than 5 hours in the same manner as Example 8. A luminescence reaction was started by the addition of 1 μL each of the crude enzyme solutions to 100 μL of TE containing 1 μg of coelenterazine (manufactured by JNC Corp.) or its analogues. The luminescence activities were determined using a luminometer (manufactured by Atto Inc.: AB2200) for 60 seconds, and the maximum intensity of luminescence (Imax) was shown as relative luminescence activity.

[3] = Substrate specificities of KAZ mutants (ZZ-fused, crude enzyme), 6h-f-CTZ; type: biochemical; settings: 1 μg substrate; for Relative Luminescence Activity 6h-f-CTZ Int.: integrated for 60 seconds; for Relative Luminescence Activity 6h-f-CTZ Imax: maximum intensity of luminescence
Method: as §1, §2

[4] = test system: CHO-K1 cells; assay: Luminescence activity of KAZ mutants expressed in animal culture cells without secretional signal peptide sequence; type: cell-based, Chinese hamster; settings: for Relative Luminescence Activity (Imax) Cell Extracts / Relative Luminescence Activity (Imax) Culture Medium: Table 12, pcDNA3- vectors without secretion signal; for Relative Luminescence Activity (Imax) Cell Extracts / Relative Luminescence Activity (Imax) Culture Medium / Luminescence activity in the cell extracts, fold higher than wild KAZ: CHO-K1, coelenterazine; for Luminescence activity compared with wild KAZ when coelenterazine was used as a substrate: summary of results; for Luminescence activity in the cell extracts, fold higher than wild KAZ: vectors without a secretion signal
Method: Chinese hamster ovary cell line CHO-K1 was cultured in Ham's F-12 medium (manufactured by Wako Pure Chemical Industries, Ltd.) supplemented with 10% (v/v) fetal bovine serum (manufactured by Biowest Inc.). The CHO-K1 cells were plated in a 6-well plate in 1×10^5 cells/well/2 mL medium (n=2) and cultured in an incubator at 37° C. in 5% (v/v) CO2. After 24 hours, the purified recombinant plasmid was transfected to CHO-K1 cells using a FuGene HD transfection kit (manufactured by Promega Corp.), which was provided for subsequent experiment. Specifically, 1 μg of the recombinant plasmid pGL4.13 [Luc2/sv40], 0.1 μg of the internal standard vector and 3 μL of FuGene HD were added to 100 μL of the medium, which was allowed to stand at room temperature for 15 minutes. Subsequently, 100 μL of the DNA-FuGene complex was added to the cells in the 6 wells. After incubation for 48 hours, the culture medium was collected. On the other hand, the KAZ mutants expressed in the cells were washed 3 times with 3 mL of 1×PBS, then suspended in 1 mL of 1×PBS and disrupted on ice by ultrasonication, which was used as enzyme solutions of the cell-extracts of KAZ mutants.
A luminescence reaction was started by adding 5 μL of the culture media and cell extracts obtained in EXAMPLE 10 to 100 μL of 30 mM Tris-HCl (pH 7.6)-10 mM EDTA (manufactured by Wako Pure Chemical Industries, Ltd.) containing 0.5 μg of coelenterazine (manufactured by INC Corp.). The luminescence activity was determined using a luminometer (manufactured by Atto Inc.: AB2200) for 60 seconds, and the maximum intensity of luminescence (Imax) was defined as a percentage.
The gene fragments of the KAZ mutants with two amino acid substitutions and three amino acid substitutions and nanoKAZ containing the Kozak sequence were digested with restriction enzymes Asp718 and XbaI, and inserted into the Asp718-XbaI site of pcDNA3 vector (manufactured by Invitrogen Inc.) to construct the vectors of pcDNA3-KAZ-V44I, pcDNA3-KAZ-A54I, pcDNA3-KAZ-Y138I, pcDNA3-KAZ-V44I-A54I, pcDNA3-KAZ-V44I-Y138I, pcDNA3-KAZ-A54I-Y138I and pcDNA3-KAZ-V44I-A54I-Y138I.
The culture media of the KAZ mutants with two amino acid substitutions and KAZ mutants with three amino acid substitutions and the enzyme solutions of cell-extracts of KAZ mutants were obtained in the same manner as EXAMPLE 10.
Luminescence activities of the resulting enzyme solutions and enzyme solutions of the cell-extracts of KAZ mutants were determined in the same manner as EXAMPLE 11.

[5] = Substrate specificities of KAZ mutants (ZZ-fused, crude enzyme), furimazine; type: biochemical; settings: 1 μg substrate; for Relative Luminescence Activity Furimazine Int.: integrated for 60 seconds; for Relative Luminescence Activity Furimazine Imax: maximum intensity of luminescence
Method: as §1, §2

[6] = Table 9, crude enzyme solution, coelenterazine

B1: KAZ-A54I-Y138I: KAZ mutant with two amino acid substitutions A54I and Y138I, SEQ ID NO: 14 (protein)
chain: FTLADFVGDWQQTAGYNQDQVLEQGGLSSLFQALGVSVTPIQKVVLSGENGLKIDIHVIIPYEGLSGFQMGLIEMIFKVVYPVDDHHFKIILHYGTLVIDGVTPNMIDYFGRPYPGIAVFDGKQITVTGTLWNGNKIIDERLINPDGSLLFRVTINGVTGWRLCENILA
- Relative Luminescence Activity (Imax) [1, 6]: 23.1
- Luminescence activity, fold higher than dnKAZ ([1]; crude enzyme solution): 2.5 fold
- Luminescence activity, fold higher than wild KAZ ([1]; crude enzyme solution): 23 fold
- Relative Luminescence Activity bis-CTZ Int. [2]: 9.2
- Relative Luminescence Activity bis-CTZ Imax [2]: 9.5
- Relative Luminescence Activity 6h-f-CTZ Int. [3]: 5.7
- Relative Luminescence Activity 6h-f-CTZ Imax [3]: 5.2
- Relative Luminescence Activity (Imax) Cell Extracts [4]: 21.5
- Relative Luminescence Activity (Imax) Culture Medium [4]: 0.05
- Luminescence activity compared with wild KAZ when coelenterazine was used as a substrate [4]: markedly higher luminescence activities than wild KAZ
- Luminescence activity in the cell extracts, fold higher than wild KAZ [4]: 22 fold
- Relative Luminescence Activity Furimazine Int. [5]: 5.8
- Relative Luminescence Activity Furimazine Imax [5]: 5.9

B2: KAZ-V44I-A54I-Y138I: KAZ mutant with three amino acid substitutions V44I, A54I and Y138I, SEQ ID NO: 16 (protein)
chain: FTLADFVGDWQQTAGYNQDQVLEQGGLSSLFQALGVSVTPIQKIVLSGENGLKIDIHVIIPYEGLSGFQMGLIEMIFKVVYPVDDHHFKIILHYGTLVIDGVTPNMIDYFGRPYPGIAVFDGKQITVTGTLWNGNKIIDERLINPDGSLLFRVTINGVTGWRLCENILA
- Relative Luminescence Activity (Imax) [1, 6]: 66.7
- Luminescence activity, fold higher than dnKAZ ([1]; crude enzyme solution): 7.1 fold
- Luminescence activity, fold higher than wild KAZ ([1]; crude enzyme solution): 67 fold
- Relative Luminescence Activity bis-CTZ Int. [2]: 11.9
- Relative Luminescence Activity bis-CTZ Imax [2]: 13.3
- Relative Luminescence Activity 6h-f-CTZ Int. [3]: 9.6
- Relative Luminescence Activity 6h-f-CTZ Imax [3]: 9.5
- Relative Luminescence Activity (Imax) Cell Extracts [4]: 56.0
- Relative Luminescence Activity (Imax) Culture Medium [4]: 0.08
- Luminescence activity compared with wild KAZ when coelenterazine was used as a substrate [4]: markedly higher luminescence activities than wild KAZ
- Luminescence activity in the cell extracts, fold higher than wild KAZ [4]: 56 fold
- Relative Luminescence Activity Furimazine Int. [5]: 9.2
- Relative Luminescence Activity Furimazine Imax [5]: 10.6

B3: KAZ: wild 19 kDa catalytic protein of Oplophorus luciferase (19kOLase), amino acid sequence SEQ ID NO: 2 (protein, listed as Oplophorus gracilirostris)
chain: FTLADFVGDWQQTAGYNQDQVLEQGGLSSLFQALGVSVTPIQKVVLSGENGLKADIHVIIPYEGLSGFQMGLIEMIFKVVYPVDDHHFKIILHYGTLVIDGVTPNMIDYFGRPYPGIAVFDGKQITVTGTLWNGNKIYDERLINPDGSLLFRVTINGVTGWRLCENILA
- Relative Luminescence Activity (Imax) ([1]; Table 4, 1 μL crude enzyme solution, 1 μg coelenterazine): 1.0
- Relative Luminescence Activity (Imax) [1, 6]: 1.0
- Relative Luminescence Activity bis-CTZ Int. [2]: 0.9
- Relative Luminescence Activity bis-CTZ Imax [2]: 0.6
- Relative Luminescence Activity 6h-f-CTZ Int. [3]: 0.7
- Relative Luminescence Activity 6h-f-CTZ Imax [3]: 0.6
- Relative Luminescence Activity (Imax) Cell Extracts [4]: 1.0
- Relative Luminescence Activity (Imax) Culture Medium [4]: 0.03
- Relative Luminescence Activity Furimazine Int. [5]: 0.5
- Relative Luminescence Activity Furimazine Imax [5]: 0.4
